Data taken from US20260240958A1, “REPRESSOR FUSION PROTEIN SYSTEMS” (Scribe Therapeutics Inc., priority 2023, published 2026).

B1: DOMAIN_26749: repressor domain, Ophiophagus hannah, SEQ ID NO 135 (protein)
chain: STPVTFEDVVVYFTAAEWVHLTNWQRDFYQAVMMETYELVASVAGDGVPMAEDEEGGVERPVWQYIPRGKRRRKTPQPRAD
modifications: Ophiophagus hannah
B2: scaffold 316: chimeric gRNA scaffold: scaffold 235 with extended stem loop of scaffold 174; SEQ ID NO 1746 (nucleic acid)
guide: ACUGGCGCUUCUAUCUGAUUACUCUGAGCGCCAUCACCAGCGACUAUGUCGUAGUGGGUAAAGCUCCCUCUUCGGAGGGAGCAUCAGAG
modifications: listed as RNA, further chemistry not given here

Columns and labels:
B2M locus [1] = assay: B2M repression by HLA immunostaining and flow cytometry in HEK293T cells transfected with LTRP:gRNA plasmids
6.7/6.8 target dsDNA [2] = assay: In vitro cleavage rate (kcleave) of CasX 491 RNPs with gRNA variants on labeled dsDNA target; format: biochemical; conditions: CasX 491 RNP, v1 gRNA, compared with scaffold 174
Experimental: (§1) Double-stranded DNA (dsDNA) targets were formed by mixing the oligos in a 1:1 ratio in 1× cleavage buffer (20 mM Tris HCl pH 7.5, 150 mM NaCl, 1 mM TCEP, […], 10 mM MgCl2), following by heating to 95° C. for 10 minutes, and then allowing the solution to cool to room temperature. CasX ribonucleoproteins (RNPs) were reconstituted with CasX 491 and the indicated gRNAs at a final concentration of 1 μM with 1.2-fold excess of the indicated gRNA in 1× cleavage buffer. RNPs were allowed to form at 37° C. for 10 minutes.
The effects of various structural and chemical modifications to the gRNA scaffold on the cleavage rate of CasX 491 RNPs were determined. Cleavage reactions were prepared with final RNP concentrations of 200 nM and final target concentrations of 10 nM, and reactions were carried out at 16° C. and initiated by the addition of the labeled target DNA substrate (Table 46). Aliquots of reactions were taken at 0.25, 0.5, 1, 2, 5, and 10 minutes and quenched by adding an equal volume of 95% formamide with 20 mM EDTA. Samples were denatured at 95° C. for 10 minutes and resolved on a 10% urea-PAGE gel. Gels were imaged on a Typhoon™ laser-scanner platform and quantified using ImageQuant™ TL 8.2 image analysis software (Cytiva™). The apparent first-order rate constant of non-target strand cleavage (kcieave-) was determined for each CasX:gRNA combination.

human B2M locus = assay: Indel rate by NGS at the human B2M locus in HepG2 cells treated with LNPs (CasX 491 mRNA and gRNA); format: cell-based; conditions: CasX 491 mRNA
Experimental: (§2) ~50,000 HepG2 cells, cultured in DMEM/F-12 media containing 10% FBS and 1% PenStrep, were seeded per well in a 96-well plate. The next day, seeded cells were treated with varying concentrations of LNPs, which were prepared in six 2-fold serial dilutions starting at 250 ng. These LNPs were formulated to encapsulate CasX 491 mRNA and a B2M-targeting gRNA incorporating either scaffold variant 174 or 316 with spacer 7.9 (v1; see Table 45). Media was changed 24 hours after LNP treatment, and cells were cultured for six additional days prior to harvesting for gDNA extraction for editing assessment at the B2M locus by NGS and B2M protein expression analysis via HLA immunostaining, followed by flow cytometry using the Attune NxT flow cytometer. Briefly, for editing assessment, amplicons were amplified from 200 ng of extracted gDNA with primers targeting the human B2M locus and processed as described in Example 1.

PCSK9 locus [3] = assay: Secreted PCSK9 levels in media of HepG2 cells lipofected with CasX 491 mRNA and gRNA; format: cell-based, human; conditions: CasX 491 mRNA, v1 gRNAs spacers 6.7 and 6.8, compared with scaffold 174
Experimental: (§3) Editing at the PCSK9 locus and consequential effects on secreted PCSK9 levels were assessed for conditions using CasX 491 mRNA co-delivered with a PCSK9-targeting gRNA with scaffold variant 174 compared to conditions where a PCSK9-targeting gRNA with scaffold variant 316 was used. 100 ng of in vitro transcribed mRNA coding for CasX 491 with a P2A and mScarlet fluorescent protein was transfected into HepG2 cells with version 1 (v1) of gRNAs 174-6.7, 174-6.8, 316-6.7, and 316-6.8 (see Table 45) using lipofectamine. After a media change, the following were harvested at 28 hours post-transfection: 1) transfected cells were harvested for editing assessment at the PCSK9 locus by NGS (next generation sequencing); and 2) media supernatant was harvested to measure secreted PCSK9 protein levels by ELISA. For editing analysis by NGS, amplicons were amplified from 200 ng of extracted gDNA with a set of primers targeting the PCSK9 locus and processed as described earlier in Example 1. Secreted PCSK9 levels in the media supernatant were also analyzed using a fluorescence resonance energy transfer-based immunoassay from CISBio following the manufacturer's instructions. […]
(§4) V1 through v6 variants of chemically-modified PCSK9-targeting gRNAs (Table 45) were assessed for their effects on editing potency and consequential effects on secreted PCSK9 levels in vitro. […]

6.7/6.8 target dsDNA [4] = assay: Competent (active) fraction of CasX 491 RNPs formed by each gRNA, equimolar cleavage assay; format: biochemical; conditions: CasX 491 RNP, v1 gRNA, spacer 6.7 or 6.8
Experimental: as §1
To determine the competent fraction formed by each gRNA, cleavage reactions were prepared with final RNP concentrations of 100 nM and final target concentrations of 100 nM. Reactions were carried out at 37° C. and initiated by the addition of the labeled target substrate (Table 46). Aliquots were taken at 0.5, 1, 2, 5, 10, and 30 minutes and quenched by adding an equal volume of 95% formamide with 25 mM EDTA. Samples were denatured by heating at 95° C. for 10 minutes and resolved on a 10% urea-PAGE gel. Gels were imaged and quantified as above. […] The plateau of each fit was determined and reported as the active fraction for each RNP in Table 49.

B2M locus [5] = assay: B2M knockout (loss of HLA surface presentation, flow cytometry) in HepG2 cells with CasX 491 mRNA and B2M-targeting gRNA; format: cell-based, human; conditions: LNPs, CasX 491 mRNA, spacer 7.9 v1, each dose, compared with scaffold 174
Experimental: To compare the editing potency of version 0 (v0) and version 1 (v1) of B2M-targeting gRNAs, ~6E4 HepG2 hepatocytes were seeded per well of a 96-well plate. 24 hours later, seeded cells were co-transfected using lipofectamine with 100 ng of in vitro transcribed mRNA coding for CasX 491 and different doses (1, 5, or 50 ng) of either v0 or v1 of the B2M-targeting gRNA containing scaffold variant 174 and spacer 7.37 (see Table 45).
as §2

PCSK9 locus [6] = assay: Editing (indel rate by NGS) at the PCSK9 locus in HepG2 cells lipofected with CasX 491 mRNA and gRNA; format: cell-based, human; conditions: CasX 491 mRNA, v1 gRNAs spacers 6.7 and 6.8, 28 hours
Experimental: as §3, §4

Molecule	B2M repression as second repressor domain in LTRP6 configuration (B2M locus [1]; 4 days post-transfection)	B2M repression (HLA-negative cells) (B2M locus [1]; gRNA scaffold 174 spacer 7.165, LTRP6 = ZIM3 first, named domain second repressor domain, day not stated in text (Tables 16-18, days 4-13))	cleavage rate (6.7/6.8 target dsDNA [2]; spacer 6.7)	cleavage rate (6.7/6.8 target dsDNA [2]; spacer 6.8)	editing potency at the B2M locus (indel rate by NGS) (human B2M locus; spacer 7.9 v1, each dose, compared with scaffold 174)	editing level at the B2M locus compared with scaffold 174 (human B2M locus; spacer 7.9 v1, highest dose of 250 ng)	reduction of PCSK9 secretion (PCSK9 locus [3])	active fraction higher than for scaffold 174 (6.7/6.8 target dsDNA [4])	editing potency at the B2M locus (loss of HLA surface presentation) (B2M locus [5])	increase in editing rate at the PCSK9 locus over scaffold 174 (PCSK9 locus [6])
B1	highest level of B2M repression at 4 days post-transfection	~ 83.800%								
B2			marginally faster cleavage	nearly twice as quickly	higher editing potency at the B2M locus	nearly two-fold higher	more effective reduction of PCSK9 secretion	25-30%	higher editing potency at the B2M locus	~ 10 percentage point
